Source: article PMC314469, “Protein Interaction Networks by Proteome Peptide Scanning” (PLoS Biology, 2004)

T1: Boi1 SH3 (BOI1_YEAST), P38041
T1 chain: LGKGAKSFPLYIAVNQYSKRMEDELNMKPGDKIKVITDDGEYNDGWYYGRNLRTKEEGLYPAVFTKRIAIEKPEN

T2: Yfr024 SH3 (LSB3_YEAST), P43603
T2 chain: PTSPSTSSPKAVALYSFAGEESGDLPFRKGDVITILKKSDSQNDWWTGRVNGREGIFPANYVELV

T3: Boi2 SH3 (BOI2_YEAST), P39969
T3 chain: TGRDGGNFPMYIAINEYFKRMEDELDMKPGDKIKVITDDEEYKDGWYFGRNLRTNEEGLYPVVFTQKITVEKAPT

T4: Yhr016c SH3 (YSC84_YEAST), P32793
T4 chain: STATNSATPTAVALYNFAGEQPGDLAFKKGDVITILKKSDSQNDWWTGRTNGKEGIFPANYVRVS

T5: Rvs167 SH3 (RV167_YEAST), P39743
T5 chain: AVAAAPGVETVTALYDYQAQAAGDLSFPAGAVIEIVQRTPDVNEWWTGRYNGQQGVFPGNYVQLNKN


Experiments:
Assay in all cases: SPOT array
[1] = molecular target: T1, Boi1 SH3 (BOI1_YEAST), P38041
[2] = molecular target: T2, Yfr024 SH3 (LSB3_YEAST), P43603
[3] = molecular target: T3, Boi2 SH3 (BOI2_YEAST), P39969
[4] = molecular target: T4, Yhr016c SH3 (YSC84_YEAST), P32793
[5] = molecular target: T5, Rvs167 SH3 (RV167_YEAST), P39743

Row | Binder | normalised SPOT signal, Boehringer light units (BLU); mean over the file's lines of this peptide [1] | normalised SPOT signal, Boehringer light units (BLU); mean over the file's lines of this peptide [2] | normalised SPOT signal, Boehringer light units (BLU); mean over the file's lines of this peptide [3] | normalised SPOT signal, Boehringer light units (BLU); mean over the file's lines of this peptide [4] | normalised SPOT signal, Boehringer light units (BLU); mean over the file's lines of this peptide [5]
1 | DFRPRMPKRQRIPP [YMR125W 18-31] | 776 | 835 | 96.7 | 211 | 87.3
2 | DHKPENPIRTFKDL [YBL042C 90-103] | 167 | 238 | 122 | 175 | 120
3 | DFTPVEPSKMREYI [YBR202W 629-642] | 64.2 | 15.3 | 59.7 | 179 | 277
4 | DGRPHSPLRARSAT [YFL007W 51-64] | 1690 | 1500 | 21.9 | 193 | 75.7

Second part, the binder after the results:

Row | normalised SPOT signal, Boehringer light units (BLU); mean over the file's lines of this peptide [1] | normalised SPOT signal, Boehringer light units (BLU); mean over the file's lines of this peptide [2] | normalised SPOT signal, Boehringer light units (BLU); mean over the file's lines of this peptide [3] | normalised SPOT signal, Boehringer light units (BLU); mean over the file's lines of this peptide [4] | normalised SPOT signal, Boehringer light units (BLU); mean over the file's lines of this peptide [5] | Binder
5 | 37.6 | 164 | 16.5 | 0 | 23.6 | DETPFFPDKIQKSF [YPR060C 81-94]
6 | 48.2 | 1590 | 14.6 | 110 | 7.2 | DLAPKWPKKTVSNE [YPL175W 432-445]
7 | 35.5 | 87.8 | 73.3 | 89.5 | 55.7 | DKLPEGPVKSLEGA [YNL134C 130-143]
8 | 6780 | 24600 | 30.2 | 5090 | 943 | DIHPSLPVRTRFAP [YOL033W 38-51]
9 | 466 | 64.1 | 39.8 | 156 | 118 | DKLPFSPIKEKKLK [YOR335C 774-787]
